Source: US20210324108A1 (Hoffmann-La Roche, published 2021)

B1: FAP (4B9)-CD40 Contorsbody P1AE1800 (bispecific antibody, IgG1)
chain 1: not shown
chain 2: DIQMTQSPSSLSASVGDRVTITCRSSQSLVHSNGNTFLHWYQQKPGKAPKLLIYTVSNRFSGVPSRFSGSGSGTDFTLTISSLQPEDFATYFCSQTTHVPWTFGGGTKVEIKRTVAAPSVFIFPPSDEQLKSGTASVVCLLNNFYPREAKVQWKVDNALQSGNSQESVTEQDSKDSTYSLSSTLTLSKADYEKHKVYACEVTHQGLSSPVTKSFNRGECGGGGSGGGGSDKTHTCPPCPAPEAAGGPSVFLFPPKPKDTLMISRTPEVTCVVVDVSHEDPEVKFNWYVDGVEVHNAKTKPREEQYNSTYRVVSVLTVLHQDWLNGKEYKCKVSNKALGAPIEKTISKAKGQPREPQVCTLPPSRDELTKNQVSLSCAVKGFYPSDIAVEWESNGQPENNYKTTPPVLDSDGSFFLVSKLTVDKSRWQQGNVFSCSVMHEALHNHYTQKSLSLSPGKGGGGSGGGGSEVQLLESGGGLVQPGGSLRLSCAASGYSFTGYYIHWVRQAPGKGLEWVGRVIPNAGGTSYNQKFKGRFTISVDNSKNTAYLQMNSLRAEDTAVYYCAREGIYWWGQGTTVTVSSASTKGPSVFPLAPSSKSTSGGTAALGCLVKDYFPEPVTVSWNSGALTSGVHTFPAVLQSSGLYSLSSVVTVPSSSLGTQTYICNVNHKPSNTKVDKKVEPKSCGGGGSGGGGSGGGSGGGGSEIVLTQSPGTLSLSPGERATLSCRASQSVTSSYLAWYQQKPGQAPRLLINVGSRRATGIPDRFSGSGSGTDFTLTISRLEPEDFAVYYCQQGIMLPPTFGQGTKVEIKSSASTKGPSVFPLAPSSKSTSGGTAALGCLVKDYFPEPVTVSWNSGALTSGVHTFPAVLQSSGLYSLSSVVTVPSSSLGTQTYICNVNHKPSNTKVDKKVEPKSC
notes: 2+1 contorsbody; IgG1 Fc knob/hole, P329G LALA
B2: FAP (4B9)-CD40 Contorsbody P1AE1799 (bispecific antibody, IgG1)
chain 1: not shown
chain 2: EVQLLESGGGLVQPGGSLRLSCAASGYSFTGYYIHWVRQAPGKGLEWVGRVIPNAGGTSYNQKFKGRFTISVDNSKNTAYLQMNSLRAEDTAVYYCAREGIYWWGQGTTVTVSSASTKGPSVFPLAPSSKSTSGGTAALGCLVKDYFPEPVTVSWNSGALTSGVHTFPAVLQSSGLYSLSSVVTVPSSSLGTQTYICNVNHKPSNTKVDKKVEPKSCGGGGSGGGGSDKTHTCPPCPAPEAAGGPSVFLFPPKPKDTLMISRTPEVTCVVVDVSHEDPEVKFNWYVDGVEVHNAKTKPREEQYNSTYRVVSVLTVLHQDWLNGKEYKCKVSNKALGAPIEKTISKAKGQPREPQVCTLPPSRDELTKNQVSLSCAVKGFYPSDIAVEWESNGQPENNYKTTPPVLDSDGSFFLVSKLTVDKSRWQQGNVFSCSVMHEALHNHYTQKSLSLSPGKGGGGSGGGGSDIQMTQSPSSLSASVGDRVTITCRSSQSLVHSNGNTFLHWYQQKPGKAPKLLIYTVSNRFSGVPSRFSGSGSGTDFTLTISSLQPEDFATYFCSQTTHVPWTFGGGTKVEIKRTVAAPSVFIFPPSDEQLKSGTASVVCLLNNFYPREAKVQWKVDNALQSGNSQESVTEQDSKDSTYSLSSTLTLSKADYEKHKVYACEVTHQGLSSPVTKSFNRGECGGGGSGGGGSGGGSGGGGSEIVLTQSPGTLSLSPGERATLSCRASQSVTSSYLAWYQQKPGQAPRLLINVGSRRATGIPDRFSGSGSGTDFTLTISRLEPEDFAVYYCQQGIMLPPTFGQGTKVEIKSSASTKGPSVFPLAPSSKSTSGGTAALGCLVKDYFPEPVTVSWNSGALTSGVHTFPAVLQSSGLYSLSSVVTVPSSSLGTQTYICNVNHKPSNTKVDKKVEPKSC
notes: as for B1
B3: FAP (4B9)-CD40 Contorsbody P1AE2255 (bispecific antibody, IgG1)
chain 1: not shown
chain 2: EVQLLESGGGLVQPGGSLRLSCAASGYSFTGYYIHWVRQAPGKGLEWVGRVIPNAGGTSYNQKFKGRFTISVDNSKNTAYLQMNSLRAEDTAVYYCAREGIYWWGQGTTVTVSSASTKGPSVFPLAPSSKSTSGGTAALGCLVEDYFPEPVTVSWNSGALTSGVHTFPAVLQSSGLYSLSSVVTVPSSSLGTQTYICNVNHKPSNTKVDEKVEPKSCGGGGSGGGGSDKTHTCPPCPAPEAAGGPSVFLFPPKPKDTLMISRTPEVTCVVVDVSHEDPEVKFNWYVDGVEVHNAKTKPREEQYNSTYRVVSVLTVLHQDWLNGKEYKCKVSNKALGAPIEKTISKAKGQPREPQVCTLPPSRDELTKNQVSLSCAVKGFYPSDIAVEWESNGQPENNYKTTPPVLDSDGSFFLVSKLTVDKSRWQQGNVFSCSVMHEALHNHYTQKSLSLSPGKGGGGSGGGGSDIQMTQSPSSLSASVGDRVTITCRSSQSLVHSNGNTFLHWYQQKPGKAPKLLIYTVSNRFSGVPSRFSGSGSGTDFTLTISSLQPEDFATYFCSQTTHVPWTFGGGTKVEIKRTVAAPSVFIFPPSDRKLKSGTASVVCLLNNFYPREAKVQWKVDNALQSGNSQESVTEQDSKDSTYSLSSTLTLSKADYEKHKVYACEVTHQGLSSPVTKSFNRGECGGGGSGGGGSGGGSGGGGSEIVLTQSPGTLSLSPGERATLSCRASQSVTSSYLAWYQQKPGQAPRLLINVGSRRATGIPDRFSGSGSGTDFTLTISRLEPEDFAVYYCQQGIMLPPTFGQGTKVEIKSSASTKGPSVFPLAPSSKSTSGGTAALGCLVKDYFPEPVTVSWNSGALTSGVHTFPAVLQSSGLYSLSSVVTVPSSSLGTQTYICNVNHKPSNTKVDKKVEPKSC
notes: 2+1 contorsbody with charged residues in the CD40 Fabs; IgG1 Fc knob/hole, P329G LALA
B4: FAP (4B9)-CD40 Contorsbody P1AE1901 (bispecific antibody, IgG1)
chain 1: not shown
chain 2: DIQMTQSPSSLSASVGDRVTITCRSSQSLVHSNGNTFLHWYQQKPGKAPKLLIYTVSNRFSGVPSRFSGSGSGTDFTLTISSLQPEDFATYFCSQTTHVPWTFGGGTKVEIKRTVAAPSVFIFPPSDEQLKSGTASVVCLLNNFYPREAKVQWKVDNALQSGNSQESVTEQDSKDSTYSLSSTLTLSKADYEKHKVYACEVTHQGLSSPVTKSFNRGECGGGGSGGGGSDKTHTCPPCPAPEAAGGPSVFLFPPKPKDTLMISRTPEVTCVVVDVSHEDPEVKFNWYVDGVEVHNAKTKPREEQYNSTYRVVSVLTVLHQDWLNGKEYKCKVSNKALGAPIEKTISKAKGQPREPQVCTLPPSRDELTKNQVSLSCAVKGFYPSDIAVEWESNGQPENNYKTTPPVLDSDGSFFLVSKLTVDKSRWQQGNVFSCSVMHEALHNHYTQKSLSLSPGKGGGGSGGGGSEVQLLESGGGLVQPGGSLRLSCAASGYSFTGYYIHWVRQAPGKGLEWVGRVIPNAGGTSYNQKFKGRFTISVDNSKNTAYLQMNSLRAEDTAVYYCAREGIYWWGQGTTVTVSSASTKGPSVFPLAPSSKSTSGGTAALGCLVKDYFPEPVTVSWNSGALTSGVHTFPAVLQSSGLYSLSSVVTVPSSSLGTQTYICNVNHKPSNTKVDKKVEPKSCGGGGSGGGGSGGGSGGGGSEVQLLESGGGLVQPGGSLRLSCAASGFTFSSYAMSWVRQAPGKGLEWVSAIIGSGASTYYADSVKGRFTISRDNSKNTLYLQMNSLRAEDTAVYYCAKGWFGGFNYWGQGTLVTVSSASVAAPSVFIFPPSDEQLKSGTASVVCLLNNFYPREAKVQWKVDNALQSGNSQESVTEQDSKDSTYSLSSTLTLSKADYEKHKVYACEVTHQGLSSPVTKSFNRGEC
notes: as for B1
B5: FAP (4B9)-CD40 Contorsbody P1AE1902 (bispecific antibody, IgG1)
chain 1: not shown
chain 2: EVQLLESGGGLVQPGGSLRLSCAASGYSFTGYYIHWVRQAPGKGLEWVGRVIPNAGGTSYNQKFKGRFTISVDNSKNTAYLQMNSLRAEDTAVYYCAREGIYWWGQGTTVTVSSASTKGPSVFPLAPSSKSTSGGTAALGCLVKDYFPEPVTVSWNSGALTSGVHTFPAVLQSSGLYSLSSVVTVPSSSLGTQTYICNVNHKPSNTKVDKKVEPKSCGGGGSGGGGSDKTHTCPPCPAPEAAGGPSVFLFPPKPKDTLMISRTPEVTCVVVDVSHEDPEVKFNWYVDGVEVHNAKTKPREEQYNSTYRVVSVLTVLHQDWLNGKEYKCKVSNKALGAPIEKTISKAKGQPREPQVCTLPPSRDELTKNQVSLSCAVKGFYPSDIAVEWESNGQPENNYKTTPPVLDSDGSFFLVSKLTVDKSRWQQGNVFSCSVMHEALHNHYTQKSLSLSPGKGGGGSGGGGSDIQMTQSPSSLSASVGDRVTITCRSSQSLVHSNGNTFLHWYQQKPGKAPKLLIYTVSNRFSGVPSRFSGSGSGTDFTLTISSLQPEDFATYFCSQTTHVPWTFGGGTKVEIKRTVAAPSVFIFPPSDEQLKSGTASVVCLLNNFYPREAKVQWKVDNALQSGNSQESVTEQDSKDSTYSLSSTLTLSKADYEKHKVYACEVTHQGLSSPVTKSFNRGECGGGGSGGGGSGGGSGGGGSEVQLLESGGGLVQPGGSLRLSCAASGFTFSSYAMSWVRQAPGKGLEWVSAIIGSGASTYYADSVKGRFTISRDNSKNTLYLQMNSLRAEDTAVYYCAKGWFGGFNYWGQGTLVTVSSASVAAPSVFIFPPSDEQLKSGTASVVCLLNNFYPREAKVQWKVDNALQSGNSQESVTEQDSKDSTYSLSSTLTLSKADYEKHKVYACEVTHQGLSSPVTKSFNRGEC
notes: as for B1

Columns and labels:
[1] = molecular target: T1, recombinant human FAP (human, UniProt Q12884 26-760); experiment: SPR, huFAP captured (anti-His), Ab analyte
T1 construct: exact construct not described; also called FAP ECD; not shown: The histidine tag (and any linker to it) implied by capture on an anti-histidine antibody
Protocol: Around 12000 resonance units (RU) of the capturing system (15 μg/ml anti-histidine antibody; Order Code: 28995056; GE Healthcare Bio-Sciences AB, Sweden) were coupled on a CMS chip (GE Healthcare BR-1005-30) at pH 4.5 by using an amine coupling kit supplied by the GE Healthcare. Running buffer for Immobilization was HBS-N pH 7.4 (10 mM HEPES, 150 mM NaCl, pH 7.4, GE Healthcare). For the following kinetic characterization running buffer was PBS-P pH 7.4 (20 mM phosphate buffer, 2.7 mM KCl, 137 mM NaCl, 0.05% surfactant P20). The flow cell was set to 25° C.—and the sample block set to 12° C.—and primed with running buffer twice. […] The dissociation phase was monitored for up to 720 s and triggered by switching from the sample solution to running buffer. The surface was regenerated by washing with 10 mM Glycine pH 1.5 for 60 s at a flow rate of 30 μl/min. Bulk refractive index differences were corrected by subtracting the response obtained from an anti-histidine surface. Blank injections are also subtracted (=double referencing). For calculation of KD and kinetic parameters the Langmuir 1:1 model was used.

[2] = molecular target: T2, recombinant human CD40_ECD (human, UniProt P25942 21-193); experiment: SPR Biacore T200, huCD40 ECD analyte, apparent KD
T2 construct: also called human CD40 extra cellular domain
Protocol: The capacity of the bispecific constructs to bind human CD40 was assessed by surface plasmon resonance (SPR). […] Bulk refractive index differences were corrected by subtracting the response obtained from a goat anti human F(ab′)2 surface. Blank injections are also subtracted (=double referencing). For calculation of apparent KD and other kinetic parameters the Langmuir 1:1 model was used. The apparent Kd was calculated using the Biacore™ B4000 evaluation software (version 1.1).

| Binder | Kd [1] [nM] | koff [1] [s⁻¹] | kon [1] [M⁻¹ s⁻¹] | t 1/2 [1] [min] | Kd [2] [nM] | koff [2] [s⁻¹] | kon [2] [M⁻¹ s⁻¹] | t 1/2 [2] [min] |
| --- | --- | --- | --- | --- | --- | --- | --- | --- |
| B1 | 9.07 | 0.000778 | 85700 | 14.8 | 9.43 | 0.0127 | 1.35e+06 | 0.917 |
| B2 | 4.58 | 0.000253 | 55300 | 45.7 | 15.7 | 0.0151 | 957000 | 0.767 |
| B3 | 4.44 | 0.000235 | 52800 | 49.2 | 17.3 | 0.0159 | 918000 | 0.733 |
| B4 | 7.05 | 0.000269 | 38200 | 43 | 6.98 | 0.00692 | 991000 | 1.67 |
| B5 | 5.33 | 0.000288 | 54100 | 40.1 | 18.7 | 0.0145 | 776000 | 0.8 |
